Experimental data: the supplement of paper PMC9233669
This sample holds only a part of the variants without activity.

Legend:
[1] = test system: biotinyl-Trp-oxazolone; experiment: self-aminoacylation, catalytic enhancement (BWO) (fold over background); higher = more active; k-Seq, kA / k0A0; sequences stand for … in GGGAAUGGAUCCACAUCUACGAAUUC…UUCACUGCAGACUUGACGAAGCUG
Summary of the method: (§1)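 Mutagenized RNA pools with a 21-nt variable region (0.43 μM) were reacted with each biotinyl-aminoacyl-oxazolone at 2–1250 μM for 90 minutes at room temperature, in 50 μL HEPES/NaCl/KCl/MgCl2/CaCl2 buffer containing 5% acetonitrile at pH 6.9–7.0. RNA captured on streptavidin was quantified by triplicate qPCR and by Illumina sequencing. The fraction reacted for each sequence was fit to a pseudo-first-order model with bootstrapping, and catalytic enhancement is the median kA divided by the uncatalyzed rate, taken as the low-activity peak of a bimodal Gaussian fit.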

[2] = test system: biotinyl-Leu-oxazolone; experiment: self-aminoacylation, catalytic enhancement (BLO) (fold over background); higher = more active; k-Seq, kA / k0A0; sequences stand for … in GGGAAUGGAUCCACAUCUACGAAUUC…UUCACUGCAGACUUGACGAAGCUG
Summary of the method: as §1

[3] = test system: biotinyl-Ile-oxazolone; experiment: self-aminoacylation, catalytic enhancement (BIO) (fold over background); higher = more active; k-Seq, kA / k0A0; sequences stand for … in GGGAAUGGAUCCACAUCUACGAAUUC…UUCACUGCAGACUUGACGAAGCUG
Summary of the method: as §1

[4] = test system: biotinyl-Met-oxazolone; experiment: self-aminoacylation, catalytic enhancement (BMO) (fold over background); higher = more active; k-Seq, kA / k0A0; sequences stand for … in GGGAAUGGAUCCACAUCUACGAAUUC…UUCACUGCAGACUUGACGAAGCUG
Summary of the method: as §1

[5] = test system: biotinyl-Phe-oxazolone; experiment: self-aminoacylation, catalytic enhancement (BFO) (fold over background); higher = more active; k-Seq, kA / k0A0; sequences stand for … in GGGAAUGGAUCCACAUCUACGAAUUC…UUCACUGCAGACUUGACGAAGCUG
Summary of the method: as §1

[6] = test system: biotinyl-Val-oxazolone; experiment: self-aminoacylation, catalytic enhancement (BVO) (fold over background); higher = more active; k-Seq, kA / k0A0; sequences stand for … in GGGAAUGGAUCCACAUCUACGAAUUC…UUCACUGCAGACUUGACGAAGCUG
Summary of the method: as §1

Sequence | self-aminoacylation [1] | self-aminoacylation [2] | self-aminoacylation [3] | self-aminoacylation [4] | self-aminoacylation [5] | self-aminoacylation [6]
AUUCACUUAGGUCAUCGGGUG [Fam2.2 aminoacylation ribozyme variant] | 6.28 | 8.1 | 3.87 | 6.36 | 48.3 | 3.86
AUUCACUUAGGUCUUCGGGUG [Fam2.2 aminoacylation ribozyme variant] | 4.2 | 3.95 | 2.96 | 3.58 | 22.7 | 2.71
AUUCACUUAGGUUAUCGGGUG [Fam2.2 aminoacylation ribozyme variant] | 3.68 | 4.03 | 2.37 | 3.33 | 18.6 | 2.5
AUUCAGCCAGGUCAUCGGGUG [Fam2.2 aminoacylation ribozyme variant] | 9.91 | 10.7 | 5.25 | 8.99 | 59.7 | 5.4
AUUCAGCUAAGUCAUCGGGUG [Fam2.2 aminoacylation ribozyme variant] | 2.81 | 3.99 | 2.96 | 3 | 24.6 | 2.96
AUUCAGCUAGGGCAUCGGGUG [Fam2.2 aminoacylation ribozyme variant] | 6.75 | 7.92 | 4.72 | 6.69 | 64.3 | 4.65
AUUCAGCUAGGUCAUCAGGUG [Fam2.2 aminoacylation ribozyme variant] | 2.09 | 2.39 | 1.63 | 2.38 | 8.1 | 2.04
AUUCAGCUAGGUCAUCGGGUG [Fam2.2 aminoacylation ribozyme variant] | 5.34 | 5.83 | 3.7 | 4.92 | 35 | 4.2
AUUCAGCUAGGUCAUGGGGUG [Fam2.2 aminoacylation ribozyme variant] | 3.72 | 2.94 | 2.74 | 3.03 | 17.8 | 2.98
AUUCAGCUAGGUCCUCGGGUG [Fam2.2 aminoacylation ribozyme variant] | 6.56 | 9.02 | 4.67 | 6.2 | 55.4 | 4.46
AUUCAGCUAGGUUAUCGGGUG [Fam2.2 aminoacylation ribozyme variant] | 8.86 | 9.36 | 5.01 | 7.59 | 60.4 | 5.16
AUUCAGCUAGUUCAUCGGGUG [Fam2.2 aminoacylation ribozyme variant] | 7.26 | 9.16 | 5.34 | 7.01 | 52.3 | 4.95
AUUCAGGUAGGUCAUCGGGUG [Fam2.2 aminoacylation ribozyme variant] | 5.12 | 5.83 | 3.68 | 4.59 | 30.7 | 4.23
AUUCAUAUAGGUCAUCGGGUG [Fam2.2 aminoacylation ribozyme variant] | 5.78 | 6.04 | 3.42 | 4.9 | 34.2 | 3.28
AUUCAUCCAGGUCAUCGGGUG [Fam2.2 aminoacylation ribozyme variant] | 6.96 | 9.76 | 4.96 | 7.87 | 47.8 | 4.75
AUUCAUCUAGGUCAACGGGUG [Fam2.2 aminoacylation ribozyme variant] | 3.23 | 5.32 | 2.6 | 4.08 | 29.6 | 2.61
AUUCAUCUAGGUCAUCGUGUG [Fam2.2 aminoacylation ribozyme variant] | 0.882 | 1.23 | 1.05 | 1.16 | 4.8 | 0.915
AUUCAUCUAGGUCAUUGGGUG [Fam2.2 aminoacylation ribozyme variant] | 4.24 | 4.98 | 2.67 | 4.21 | 26.7 | 2.77
AUUCAUCUAGGUUAUCGGGUG [Fam2.2 aminoacylation ribozyme variant] | 3.36 | 3.86 | 2.37 | 3.02 | 28.8 | 2.44
AUUCAUCUGGGUCAUCGGGUG [Fam2.2 aminoacylation ribozyme variant] | 7.66 | 10.3 | 5.22 | 7.57 | 53.2 | 4.92
AUUCAUCUUGGUCAUCGGGUG [Fam2.2 aminoacylation ribozyme variant] | 7.39 | 9.58 | 4.97 | 7.46 | 50.1 | 4.56
AUUCAUGUAGGUCAUCGGGUG [Fam2.2 aminoacylation ribozyme variant] | 5.09 | 6.54 | 3 | 5.45 | 33.9 | 3.43
AUUCCCAUAGGUCAUCGGGUG [Fam2.2 aminoacylation ribozyme variant] | 22 | 32.7 | 15.6 | 23.9 | 185 | 13.4
AUUCCCCUAAGUCAUCGGGUG [Fam2.2 aminoacylation ribozyme variant] | 62.2 | 85.8 | 38.6 | 59.1 | 498 | 37.9
AUUCCCCUACGUCAUCGGGUG [Fam2.2 aminoacylation ribozyme variant] | 16 | 20.9 | 10.9 | 16 | 127 | 11
